Biological target: H3.3 G90M (pCDH, transfected) (human) (UniProt P84243)
Assay: co-IP

Sequence of DAXX found with transfected H3 in 293T cells (Q9UER7 whole entry): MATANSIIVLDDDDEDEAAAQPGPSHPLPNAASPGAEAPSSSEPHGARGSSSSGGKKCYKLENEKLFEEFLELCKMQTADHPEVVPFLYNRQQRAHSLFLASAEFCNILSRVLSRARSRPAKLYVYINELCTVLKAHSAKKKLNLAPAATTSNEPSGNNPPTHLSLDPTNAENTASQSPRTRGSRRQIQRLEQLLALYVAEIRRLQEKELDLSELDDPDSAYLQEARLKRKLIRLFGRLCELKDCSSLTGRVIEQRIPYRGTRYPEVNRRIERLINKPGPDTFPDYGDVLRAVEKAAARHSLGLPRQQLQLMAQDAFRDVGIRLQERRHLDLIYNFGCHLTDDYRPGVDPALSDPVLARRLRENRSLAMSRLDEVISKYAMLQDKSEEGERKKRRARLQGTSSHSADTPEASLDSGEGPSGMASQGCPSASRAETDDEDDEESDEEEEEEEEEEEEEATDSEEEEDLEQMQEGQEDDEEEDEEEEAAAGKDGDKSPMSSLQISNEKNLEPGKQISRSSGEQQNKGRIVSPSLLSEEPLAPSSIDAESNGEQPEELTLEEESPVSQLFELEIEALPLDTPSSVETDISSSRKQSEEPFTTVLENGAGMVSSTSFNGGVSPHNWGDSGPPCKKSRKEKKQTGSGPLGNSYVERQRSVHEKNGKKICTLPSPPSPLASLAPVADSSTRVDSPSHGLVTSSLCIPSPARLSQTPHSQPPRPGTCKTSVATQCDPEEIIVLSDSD

reduction of DAXX binding against wild-type H3.3: 50%
Substance: DAXX found with transfected H3 in 293T cells (from UniProt Q9UER7 1-740) (natural protein)
